Patent US20230083670A1 (IMMUNEONCO BIOPHARMACEUTICALS SHANGHAI, published 2023)

Columns and labels:
CD47 on Jurkat cells [1] = target: T1, CD47 on Jurkat cells (UniProt Q08722 19-323, limits assumed); test: flow cytometry competition; blocks FITC-SIRPα-Fc (80 nM) on PD-L1- CD47+ Raji cells
T1 construct: whole, on cells; also called CD47-expressing Raji cells
Method: The mixtures were added to a 96-well plate containing PD-L1⁻ or PD-L1⁺ CD47-expressing Raji cells, and the plate was incubated at 4° C. for 45 minutes.

CD47 on Jurkat cells [2] = target: T1, CD47 on Jurkat cells; test: flow cytometry on Jurkat cells, FITC anti-human IgG-Fc
Method: (§1) Cells were washed with cold PBS twice, and then incubated with FITC-conjugated secondary antibody against human IgG-Fc (Cat #F9512, Sigma) for 45 min. Cells were washed twice and re-suspended in […] PBS. Then, the cells were subject to FACS analysis using a flow cytometer (Merck Millipore, Guava® easyCyte 5HT).

[3] = target: T2, PD-L1 on CHO cells expressing human PD-L1 (CHO-PDL1) (human, UniProt Q9NZQ7 19-290); test: flow cytometry on CHO-PD-L1 cells, FITC anti-human IgG-Fc
T2 construct: whole, on cells; Species is stated as human for the CHO-PDL1 cells; also called CHO-PD-L1 cells; Raji-PD-L1 cells
T2 sequence (Q9NZQ7 19-290): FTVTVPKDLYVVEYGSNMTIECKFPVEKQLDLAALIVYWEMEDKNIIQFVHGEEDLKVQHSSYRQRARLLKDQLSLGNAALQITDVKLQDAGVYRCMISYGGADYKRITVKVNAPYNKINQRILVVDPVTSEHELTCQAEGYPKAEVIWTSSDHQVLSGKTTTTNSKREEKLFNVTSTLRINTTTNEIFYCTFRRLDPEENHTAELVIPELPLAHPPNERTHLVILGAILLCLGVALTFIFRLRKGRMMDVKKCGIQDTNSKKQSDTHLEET
Method: as §1

[4] = target: T2, PD-L1 on CHO cells expressing human …; test: flow cytometry competition; blocks Biotin-hPD1-mFc (1 µg/ml) on CD47- PD-L1+ CHO cells
Method: Cells were incubated at 4° C. for 45 minutes, washed with PBS, and then further incubated at 4° C. for another 45 minutes with PE-conjugated mouse Anti-human CD279 (Cat #557946, BD BioScience).

IC50 (CD47 on Jurkat cells [1]) | EC50 (CD47 on Jurkat cells [2]) | EC50 [3] | IC50 [4] | Binder
140 nM | 0.7 nM | 0.11 nM | < 1 nM | IMM2521 (bispecific antibody, human IgG1, kappa, SIRPαD1 mutant linked through the linker to the N-terminus of each light chain of IMM2515; also called recombinant fusion protein IMM2521; PD-L1×CD47 bispecific) heavy: QVQLVQSGAEVKKPGASVKVSCKASGYTFTSNWMHWVRQAPGQGLEWMGMIHPNSGSSNYNEKFKSRVTMTRDTSTSTVYMELSSLRSEDTAVYYCARSYYGSSPYYFDYWGQGTLVTVSSASTKGPSVFPLAPSSKSTSGGTAALGCLVKDYFPEPVTVSWNSGALTSGVHTFPAVLQSSGLYSLSSVVTVPSSSLGTQTYICNVNHKPSNTKVDKRVEPKSCDKTHTCPPCPAPELLGGPSVFLFPPKPKDTLMISRTPEVTCVVVDVSHEDPEVKFNWYVDGVEVHNAKTKPREEQYNATYRVVSVLTVLHQDWLNGKEYKCKVSNKALPAPIAATISKAKGQPREPQVYTLPPSREEMTKNQVSLTCLVKGFYPSDIAVEWESNGQPENNYKTTPPVLDSDGSFFLYSKLTVDKSRWQQGNVFSCSVMHEALHNHYTQKSLSLSPGK light: not shown
 |  |  | < 1 nM | IMM2515 (antibody, human IgG1, kappa, V domains shown, also called monoclonal anti-PD-L1 antibody; monospecific anti-PD-L1 antibody IMM2515) VH: QVQLVQSGAEVKKPGASVKVSCKASGYTFTSNWMHWVRQAPGQGLEWMGMIHPNSGSSNYNEKFKSRVTMTRDTSTSTVYMELSSLRSEDTAVYYCARSYYGSSPYYFDYWGQGTLVTVSS VL: DIQMTQSPSSLSASVGDRVTITCRASQDIINYLNWYQQKPGKAPKLLIYYTSRLHSGVPSRFSGSGSGTDFTFTISSLQPEDIATYYCQQGDTLPWTFGQGTKVEIKR
